Assay results reported in article PMC3422339, “Interactions and CCAAT-Binding of Arabidopsis thaliana NF-Y Subunits”.

Target: mouse NF-YA minimal domain;mouse NF-YB HFD;mouse NF-YC HFD (mouse;mouse;mouse, UniProt P23708-2;P63139;P70353 233-303;49-141;27-120, ||)
Test: agarose EMSA; positive control; 32P EMSA: 20 mM Hepes pH 7.9, 50 mM NaCl, 5% glycerol, 5 mM MgCl2, 5 mM b-ME, 20 C; Cy5 agarose EMSA: 20 nM DNA, 20 mM Tris pH 7.5, 50 mM NaCl, 0.5 mM EDTA, 5 mM MgCl2, 2.5 mM DTT, 0.1 mg/ml BSA, 5% glycerol, 23 C
Details: protein: recombinant;recombinant;recombinant; tags: C-terminal His cleaved by thrombin;6His in dimer; untagged in purified trimer;; copies: 1;1;1; label: 5'-Cy5; blunt

Chain of mouse NF-YA minimal domain;mouse NF-YB HFD;mouse NF-YC HFD (P23708 261-331, chain 1 of 3): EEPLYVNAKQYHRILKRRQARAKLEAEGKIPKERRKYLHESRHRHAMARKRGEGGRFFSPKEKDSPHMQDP
Chain of mouse NF-YA minimal domain;mouse NF-YB HFD;mouse NF-YC HFD (P63139 49-141, chain 2 of 3): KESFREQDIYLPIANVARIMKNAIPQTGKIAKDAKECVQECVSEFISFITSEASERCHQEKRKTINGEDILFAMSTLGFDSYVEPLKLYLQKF
Chain of mouse NF-YA minimal domain;mouse NF-YB HFD;mouse NF-YC HFD (P70353 27-120, chain 3 of 3): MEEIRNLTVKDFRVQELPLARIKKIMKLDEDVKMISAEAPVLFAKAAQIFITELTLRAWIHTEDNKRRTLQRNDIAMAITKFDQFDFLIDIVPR

B1: HSP70 CCAAT 31 bp probe (dsDNA)
DNA 1: CTTCTGAGCCAATCACCGAGCTCGATGAGGC
DNA 2: GCCTCATCGAGCTCGGTGATTGGCTCAGAAG
B1: binds.
